Results from IntAct's records for PubMed 23455607.

Columns and labels:
lamp2_rat Lamp2 = lamp2_rat Lamp2 (UniProt P17046)
lamp2_human LAMP2 [1] = biological target: lamp2_human LAMP2 (UniProt P13473)
lamp2_human LAMP2 [2] = biological target: lamp2_human LAMP2 (UniProt P13473); remark: listed apart in the source

Chain of lamp2_human LAMP2 (P13473 whole entry): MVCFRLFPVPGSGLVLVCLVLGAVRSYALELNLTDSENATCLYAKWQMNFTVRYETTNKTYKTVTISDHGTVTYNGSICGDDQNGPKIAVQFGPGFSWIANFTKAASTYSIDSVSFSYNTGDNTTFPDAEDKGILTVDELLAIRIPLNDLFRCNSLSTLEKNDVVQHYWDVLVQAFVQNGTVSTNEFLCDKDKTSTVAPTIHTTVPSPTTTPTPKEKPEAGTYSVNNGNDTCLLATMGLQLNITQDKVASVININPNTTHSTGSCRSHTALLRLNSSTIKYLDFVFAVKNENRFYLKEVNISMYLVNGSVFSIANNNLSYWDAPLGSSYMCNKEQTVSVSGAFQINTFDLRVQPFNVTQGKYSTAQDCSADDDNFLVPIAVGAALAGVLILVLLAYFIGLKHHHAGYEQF
Chain of lamp2_rat Lamp2 (P17046 whole entry): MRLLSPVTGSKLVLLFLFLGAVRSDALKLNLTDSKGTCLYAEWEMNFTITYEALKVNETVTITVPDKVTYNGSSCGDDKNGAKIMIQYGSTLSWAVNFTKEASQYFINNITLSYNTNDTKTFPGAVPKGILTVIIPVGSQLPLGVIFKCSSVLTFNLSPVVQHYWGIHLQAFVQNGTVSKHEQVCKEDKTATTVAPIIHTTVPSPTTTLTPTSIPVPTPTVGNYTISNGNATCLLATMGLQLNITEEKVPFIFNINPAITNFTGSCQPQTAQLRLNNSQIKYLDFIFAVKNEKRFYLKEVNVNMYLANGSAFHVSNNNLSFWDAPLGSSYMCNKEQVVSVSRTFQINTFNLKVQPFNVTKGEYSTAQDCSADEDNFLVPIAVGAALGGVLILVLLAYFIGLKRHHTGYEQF

effect of a mutation on the interaction (lamp2_rat Lamp2) | effect of a mutation on the interaction (lamp2_human LAMP2 [1]) | effect of a mutation on the interaction (lamp2_human LAMP2 [2]) | Substance
increasing interaction | increasing interaction | – | Leucine-rich repeat serine/threonine-protein kinase 2 (Homo sapiens), Q5S007 G2019S
increasing interaction | – | increasing interaction | Leucine-rich repeat serine/threonine-protein kinase 2 (Homo sapiens), Q5S007 R1441C
